Source: article PMC10998826 (EJNMMI Research, 2024)

Experiments:
[1] = Acute toxicity, adverse events graded by CTCAE version 4.03; assay type: in vivo, humans; conditions: all patients, with and without Entresto premedication
Procedure: (§1) Patients were allowed a light breakfast at the day of each infusion. […] Entresto® was given at an oral dose of 100 mg, containing 48.6 mg sacubitril and 51.4 mg valsartan 2 h before the start of one of the two infusions. Vital signs were recorded, and a 12-lead electrocardiogram was obtained before and after each injection. Adverse events were recorded and graded according to Common Terminology Criteria for Adverse Events (CTCAE) version 4.03.

[2] = In-vivo stability in blood (radio-HPLC of plasma, % intact peptide); design: species or system humans; conditions: for Stability (% of initial signal): in-vivo, plasma radio-HPLC
Procedure: as §1
Blood samples were collected in polypropylene tubes containing ethylenediaminetetraacetic acid at 5, 15, 30 and 60 min after administration of ^177Lu-PP-F11N. The tubes were placed on ice. Plasma was separated by centrifugation (4000 g for 10 min) and protein precipitation followed using cold methanol (v/v 1/2). The mixture was stirred to favor precipitation of proteins and then centrifuged at 4000 g for 10 min. The supernatant was collected and filtered through a […] filter (Millex®-GV, Merck Millipore, Bedford, MA, USA). The clear solution was diluted with H2O (1:1) and then analyzed by radio-high performance liquid chromatography (HPLC) to determine the percentage of intact peptide over time. HPLCs were performed on the Agilent 1260 infinity instrument (Agilent, Santa Clara, United States) connected to a GABI radioactivity-HPLC-flow-monitor γ-spectrometer (Elysia-raytest, Straubenhardt, Germany).

[3] = Dosimetry of kidneys; assay type: in vivo, humans; conditions: for Kidney dose: median
Procedure: Planar whole-body scintigraphy and quantitative SPECT/CT acquisitions of neck/thorax/abdomen/pelvis were acquired with a hybrid SPECT/CT system (Siemens Intevo, Siemens Erlangen, Germany) at 1, 4, 24 and 72 h post injection (p.i.).
Kidney dosimetry was performed using the dosimetry workflow in the DRT, which includes automatic organ segmentation, time activity curve modelling, and absorbed dose calculation using the medical internal radiation dosimetry (MIRD) method and voxel dosimetry.
After automatic organ segmentation in the 24 h SPECT images, the kidney VOIs were manually corrected to ensure accurate segmentation. Then, the SPECT images at 1, 4 and 72 h where manually co-registered to the 24 h images. Time activity curves were fitted to the measured kidney activity at the four time points using a single exponential function. The calculated and measured data were then used to estimate the absorbed dose in the kidneys using the MIRD method.
Bone marrow and kidney dosimetry was performed as described before.

## CSCC[C@H](NC(=O)[C@H](Cc1c[nH]c2ccccc12)NC(=O)CNC(=O)[C@H](Cc1ccc(O)cc1)NC(=O)[C@H](C)NC(=O)[C@@H](CCC(=O)O)NC(=O)[C@@H](CCC(=O)O)NC(=O)[C@@H](CCC(=O)O)NC(=O)[C@@H](CCC(=O)O)NC(=O)[C@@H](CCC(=O)O)NC(=O)[C@@H](CCC(=O)O)NC(=O)CN1CCN(CC(=O)O)CCN(CC(=O)O)CCN(CC(=O)O)CC1)C(=O)N[C@@H](CC(=O)O)C(=O)N[C@@H](Cc1ccccc1)C(N)=O [[^177Lu]Lu-PP-F11N, [^177Lu]Lu-DOTA-(DGlu)6-Ala-Tyr-Gly-Trp-Met-Asp-Phe-NH2, metal not drawn]
[1]
  Serious adverse events: No serious adverse event
[2]; 5 min p.i.
  Median stability with Entresto premedication compared to without: 1.1 fold
[2]; 15 min p.i.
  Median stability with Entresto premedication compared to without: 1.1 fold
[2]; 30 min p.i.
  Median stability with Entresto premedication compared to without: 1.2 fold
[2]; 60 min p.i.
  Median stability with Entresto premedication compared to without: 1.6 fold
[2]; 5 min p.i., with Entresto premedication (100 mg oral, 2 h before), median of patients
  Stability (% of initial signal): 99.5%
[2]; 5 min p.i., without Entresto premedication, median of patients
  Stability (% of initial signal): 94.1%
[2]; 15 min p.i., with Entresto premedication (100 mg oral, 2 h before), median of patients
  Stability (% of initial signal): 92.1%
[2]; 15 min p.i., without Entresto premedication, median of patients
  Stability (% of initial signal): 80.3%
[2]; 15 min p.i., without Entresto premedication, patient 1
  Stability (% of initial signal): 69.9%
[2]; 15 min p.i., without Entresto premedication, patient 2
  Stability (% of initial signal): 80.3%
[2]; 15 min p.i., without Entresto premedication, patient 3
  Stability (% of initial signal): 91.4%
[2]; 15 min p.i., without Entresto premedication, patient 4
  Stability (% of initial signal): 90.5%
[2]; 15 min p.i., without Entresto premedication, patient 5
  Stability (% of initial signal): 88.8%
[2]; 15 min p.i., without Entresto premedication, patient 6
  Stability (% of initial signal): 90.2%
[2]; 15 min p.i., without Entresto premedication, patient 7
  Stability (% of initial signal): 71.4%
[2]; 15 min p.i., without Entresto premedication, patient 8
  Stability (% of initial signal): 68.1%
[2]; 30 min p.i., with Entresto premedication (100 mg oral, 2 h before), median of patients
  Stability (% of initial signal): 78.5%
[2]; 30 min p.i., with Entresto premedication (100 mg oral, 2 h before), patient 1
  Stability (% of initial signal): 78.5%
[2]; 30 min p.i., with Entresto premedication (100 mg oral, 2 h before), patient 2
  Stability (% of initial signal): 85.7%
[2]; 30 min p.i., with Entresto premedication (100 mg oral, 2 h before), patient 3
  Stability (% of initial signal): 80.6%
[2]; 30 min p.i., with Entresto premedication (100 mg oral, 2 h before), patient 5
  Stability (% of initial signal): 85.5%
[2]; 30 min p.i., with Entresto premedication (100 mg oral, 2 h before), patient 6
  Stability (% of initial signal): 77.9%
[2]; 30 min p.i., with Entresto premedication (100 mg oral, 2 h before), patient 7
  Stability (% of initial signal): 75.3%
[2]; 30 min p.i., with Entresto premedication (100 mg oral, 2 h before), patient 8
  Stability (% of initial signal): 79.9%
[2]; 30 min p.i., without Entresto premedication, median of patients
  Stability (% of initial signal): 64.5%
[2]; 30 min p.i., without Entresto premedication, patient 1
  Stability (% of initial signal): 64.5%
[2]; 30 min p.i., without Entresto premedication, patient 2
  Stability (% of initial signal): 72.3%
[2]; 30 min p.i., without Entresto premedication, patient 3
  Stability (% of initial signal): 74.8%
[2]; 30 min p.i., without Entresto premedication, patient 4
  Stability (% of initial signal): 67.6%
[2]; 30 min p.i., without Entresto premedication, patient 6
  Stability (% of initial signal): 60.3%
[2]; 30 min p.i., without Entresto premedication, patient 7
  Stability (% of initial signal): 50.1%
[2]; 60 min p.i., with Entresto premedication (100 mg oral, 2 h before), median of patients
  Stability (% of initial signal): 64.15%
[2]; 60 min p.i., without Entresto premedication, median of patients
  Stability (% of initial signal): 41.1%
[3]; Entresto premedication, eight patients
  Median absorbed dose of kidneys after premedication compared to without: 2.4 fold
[3]; with Entresto premedication
  Kidney dose: 0.11 Gy/GBq
[3]; without Entresto premedication
  Kidney dose: 0.05 Gy/GBq
